{"source": "IntAct's records for PubMed 24207126", "parents": {"B1": {"name": "Eukaryotic translation initiation factor 4E-binding protein 2 (Homo sapiens), Q13542 (parent)", "chain": "MSSSAGSGHQPSQSRAIPTRTVAISDAAQLPHDYCTTPGGTLFSTTPGGTRIIYDRKFLLDRRNSPMAQTPPCHLPNIPGVTSPGTLIEDSKVEVNNLNNLNNHDRKHAVGDDAQFEMDI"}}, "data": [{"variants_of": "B1", "details": "with if4e_human EIF4E", "values": [{"variant": "Y54A;L59A;I78A;P79A;G80A;V81A;T82A", "effect of a mutation on the interaction": "disrupting interaction strength"}]}, {"variants_of": "B1", "details": "with if4e_human EIF4E", "remark": "another data set of the same source", "values": [{"variant": "I78A;P79A;G80A;V81A;T82A", "effect of a mutation on the interaction": "decreasing interaction strength"}, {"variant": "Y54A;L59A", "effect of a mutation on the interaction": "decreasing interaction strength"}]}]}
